Data from patent publication US20110256132A1 (published 2011).

Target: T1, mature myostatin (recombinant, dimeric) (mouse polyprotein used for in-house …, UniProt O08689 268-376)
T1 sequence: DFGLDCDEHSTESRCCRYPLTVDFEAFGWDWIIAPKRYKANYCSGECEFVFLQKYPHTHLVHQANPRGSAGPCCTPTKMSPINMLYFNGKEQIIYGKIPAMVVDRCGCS
Test: cell-based or functional assay

Mean IC50, myostatin responsive reporter gene assay (A204 cells, luciferase): 10 nM
B1: mouse monoclonal antibody 10B3 (antibody, V domains shown)
VH: EVQLQQSGPELVKPGASVKISCKASGYSFTGYFMHWVKQSHGNILDWIGNIYPYNGVSNYNQRFKAKATLTVDKSSSTAYMELRSLTSEDSAVYYCARRYYYGTGPADWYFDVWGTGTTVTVSS
VL: DIKMTQSPSSMYASLRERVTITCKASQDINSYLSWFQQKPGKSPKTLIYRANRLVDGVPSRFSGSGSGQDYSLTISSLEYEDMGIYYCLQCDEFPLTFGAGTKLELK
notes: Mouse IgG2a/kappa from hybridoma; also called 10B3 mouse parental; 10B3 parental
